From the supplement of paper PMC10899765

test system: MCF10A; experiment: one-nucleolus phenotype percent effect (relative to siNT 0% and siNOL11 100%); higher = more cells with one nucleolus (ribosome biogenesis inhibition); details: 20 nM; 72 h
Procedure: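 After 72 h, cells were fixed and stained with Hoechst and anti-fibrillarin, and nucleoli per nucleus were counted with CellProfiler. Values are plate-adjusted percent effect for the one-nucleolus and 5+ nucleoli phenotypes, normalised to siNT (0%) and to the positive controls siNOL11 or siKIF11 (100%), as the mean of biological triplicates. Percent viability is the nuclei count relative to siNT.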

Sequence	one-nucleolus phenotype percent effect [%]
UCAGGCAGUGUGGGUAUCAGAU [hsa-miR-4692]	23.2
CCCGGAGCCAGGAUGCAGCUC [hsa-miR-1203]	-10.2
CCUGCUGGUCAGGAGUGGAUACUG [hsa-miR-3692-5p]	2.08
UUUCCCUUCAGAGCCUGGCUUU [hsa-miR-4755-5p]	3.84
UAUGUCUGCUGACCAUCACCUU [hsa-miR-654-3p]	28.2
UCAUAUUGCUUCUUUCU [hsa-miR-1279]	-26.6
UGGACCUCUCCUCCCCAG [hsa-miR-6861-3p]	2.35
UCUCUCUCCCACUUCCCUGCAG [hsa-miR-7110-3p]	-0.286
UUCACUGGAGUUUGUUUCAAUA [hsa-miR-653-3p]	-7.51
AUUGUAGAACCUAAGAUUGGCC [hsa-miR-3674]	40.2
UGCCCCACCUGCUGACCACCCUC [hsa-miR-4758-3p]	-20.9
CAAAGUGAUGAGUAAUACUGGCUG [hsa-miR-3609]	-12.6
UCCAGCAUCAGUGAUUUUGUUG [hsa-miR-338-3p]	-13.2
CAACCUCGACGAUCUCCUCAGC [hsa-miR-3150a-5p]	-25.7
CUGGACUUUGAUCUUGCCAUAA [hsa-miR-8058]	32.1
CGGCUGGAGGUGUGAGGA [hsa-miR-3652]	44.8
CCCCGGUGUUGGGGCGCGUCUGC [hsa-miR-4783-3p]	-13
UCAGUCACAUAUCUAGUGUCUA [hsa-miR-4704-3p]	5.92
UGUCUGCCCGCAUGCCUGCCUCU [hsa-miR-346]	31
UCUGUGAUAGAGAUUCUUUGCU [hsa-miR-4679]	-10.8
CAAAUUCGUAUCUAGGGGAAUA [hsa-miR-10a-3p]	-15.8
UUAGGGAGUAGAAGGGUGGGGAG [hsa-miR-3162-5p]	8.12
AUUCUGCAUUUUUAGCAAGUUC [hsa-miR-544a]	5.39

Sequence	one-nucleolus phenotype percent effect [%]
AGAGGUAUAGGGCAUGGGAA [hsa-miR-202-3p]	10.1
GGAGGAACCUUGGAGCUUCGGC [hsa-miR-3928]	-14.5
UGAGGGUGUCAGCAGGUGACG [hsa-miR-6804-5p]	19.5
GCGGGGCUGGGCGCGCG [hsa-miR-4508]	-26.4
AAUAAAGUUCAUGUAUGGCAA [hsa-miR-5590-3p]	-1.04
CCGCCUUCUCUCCUCCCCCAG [hsa-miR-6880-3p]	-31.4
CUACUUCUACCUGUGUUAUCAU [hsa-miR-3682-5p]	19.8
UGAGGGAGGAGGUUGGGUA [hsa-miR-6133]	1.81
GUUGGGACAAGAGGACGGUCUU [hsa-miR-3122]	-20.5
ACAGCACUGCCUGGUCAGA [hsa-miR-383-3p]	-8.43
UGUGACAGAUUGAUAACUGAAA [hsa-miR-542-3p]	65.1
UCUAGUAAGAGUGGCAGUCGA [hsa-miR-628-3p]	-7.59
AGACACAUUUGGAGAGGGACCC [hsa-miR-642b-3p]	-3.17
AUAGGACUCAUAUAGUGCCAG [hsa-miR-3117-3p]	-13.2
CGCGCGGCCGUGCUCGGAGCAG [hsa-miR-4479]	54.5
ACUGGACUUAGGGUCAGAAGGC [hsa-miR-422a]	12.5
UGGGAUGAGGGAUUGAAGUGGA [hsa-miR-5187-5p]	-17.7
AAAAGUAAUUGCGAGUUUUACC [hsa-miR-548a-5p]	-20.8
UAGGACACAUGGUCUACUUCU [hsa-miR-1197]	7.44
UGGAGAGAAAGGCAGUA [hsa-miR-4306]	-8.22
CAAGCCUCUCCUGCCCUUCCAG [hsa-miR-7109-3p]	-12.1
AGGGGGAAAGUUCUAUAGUCC [hsa-miR-625-5p]	21.3
